From US20220406376A1 (MacroGenics, published 2022)

Legend:
[1] = biological target: T1, HER2/neu on the surface of target cells (N87, JIMT-1, MCF-7, MDA-MB231) (UniProt P04626 23-1255, limits assumed); test: flow cytometry on N87 gastric cancer cells, anti-hFc APC MFI
T1 construct: whole, on cells

[2] = biological target: T2, CD137 on the surface of cells (activated human T cells; engineered CHO cells) (human, UniProt Q07011 24-255); test: flow cytometry on activated pan T cells gated CD8, anti-hFc APC MFI
T2 construct: whole, on cells; also called human CD137; cell surface expressed CD137

[3] = biological target: T2, CD137 on the surface of cells …; test: flow cytometry on activated pan T cells (donor D46433, CD8 PE), anti-hFc APC MFI
[4] = biological target: T1, HER2/neu on the surface of target cells …; test: flow cytometry on JIMT-1 cells, anti-hFc APC MFI
[5] = biological target: T1, HER2/neu on the surface of target cells …; test: flow cytometry on MCF-7 cells, anti-hFc APC MFI
[6] = biological target: T1, HER2/neu on the surface of target cells …; test: flow cytometry on N87 cells, anti-hFc APC MFI
[7] = biological target: T3, extracellular portion of human HER2 fused to a histidine-containing peptide (human, UniProt P04626 23-652); test: SPR (BIACORE); antibody captured on anti-human Fc; huHER2 6.25-50 nM; 1:1 Langmuir
T3 construct: extracellular domain; also called huHER2; Human HER2/neu
Text: The humanized variants were selected to have improved binding affinity as compared to the parental murine antibody and as described may be further engineered to eliminate sequence liabilities (e.g., isomerization, deamidation sites) as described above. The binding affinity of several combinations of humanized VH and VL domains was examined by BIACORE®. Thus, an extracellular portion of human HER2 fused to a histidine-containing peptide (“huHER2”) was passed over a surface coated with immobilized antibody. Briefly, each test molecule was captured onto an F(ab)₂ goat-anti-human Fc-coated surface and then incubated in the presence of different concentrations (6.25 nM-50 nM) of huHER2. The kinetics of binding were determined via BIACORE® analysis binding (normalized 1:1 Langmuir binding model).

T2 sequence (Q07011 24-255, change not shown): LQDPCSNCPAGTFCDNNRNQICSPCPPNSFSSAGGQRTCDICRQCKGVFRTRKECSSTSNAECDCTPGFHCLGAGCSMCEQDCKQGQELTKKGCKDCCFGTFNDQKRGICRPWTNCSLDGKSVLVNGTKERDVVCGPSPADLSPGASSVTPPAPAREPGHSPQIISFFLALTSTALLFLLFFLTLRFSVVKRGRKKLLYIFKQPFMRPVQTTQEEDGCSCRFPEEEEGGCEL

B1: DART-C (bispecific antibody)
chain 1: not shown
chain 2: DIQMTQSPSSLSASVGDRVTITCKASQDISNYLSWFQQKPGKAPKTLIYRANRLQSGVPSRFSGSGSGTDFTLTISSLQPEDFATYYCLQHDEFPWTFGQGTKLEIKGGGSGGGGQVQLVQSGAEVKKPGASVKVSCKASGYTFTSYWINWVKQAPGQGLEWIGNIYPSDSYTNYNQKFKDKATITADKSTSTAYMELSSLRSEDTAVYYCTRDYGSSYSFDYWGQGTTVTVSSGGCGGGKVAACKEKVAALKEKVAALKEKVAALKE
[1]
  EC50 (read off the curve): ~500 pM
[2]
  EC50 (read off the curve): ~100 pM

B2: TRIDENT-A3 (bispecific antibody, human IgG1, kappa, L234A L235A)
chain 1: DIQMTQSPSSLSASVGDRVTITCRPSQDISNYLNWYQQKPDKTVKLLIYYTSRLRSGVPSRFSGSGSGTDFTFTISSLQPEDIATYFCQQGDTLPYTFGQGTKLEIKGGGSGGGGQVQLVQSGAEVKKPGASVKVSCKASGYTFTSYWINWVKQAPGQGLEWIGNIYPSDSYTNYNQKFKDKATITADKSTSTAYMELSSLRSEDTAVYYCTRDYGSAYSYSLWGQGTTVTVSSASTKGEVAACEKEVAALEKEVAALEKEVAALEKGGGDKTHTCPPCPAPEAAGGPSVFLFPPKPKDTLMISRTPEVTCVVVDVSHEDPEVKFNWYVDGVEVHNAKTKPREEQYNSTYRVVSVLTVLHQDWLNGKEYKCKVSNKALPAPIEKTISKAKGQPREPQVYTLPPSREEMTKNQVSLWCLVKGFYPSDIAVEWESNGQPENNYKTTPPVLDSDGSFFLYSKLTVDKSRWQQGNVFSCSVMHEALHNHYTQKSLSLSPGK
chain 2: DIQMTQSPSSLSASVGDRVTITCRPSQDISNYLNWYQQKPDKTVKLLIYYTSRLRSGVPSRFSGSGSGTDFTFTISSLQPEDIATYFCQQGDTLPYTFGQGTKLEIKGGGSGGGGQVQLVQSGAEVKKPGASVKVSCKASGYTFTSYWINWVKQAPGQGLEWIGNIYPSDSYTNYNQKFKDKATITADKSTSTAYMELSSLRSEDTAVYYCTRDYGSAYSYSLWGQGTTVTVSSASTKGKVAACKEKVAALKEKVAALKEKVAALKE
heavy: QVQLVQSGAEVKKPGASVKVSCKASGYTFTNYGMNWVRQAPGQGLEWMGWINTNIGEPTYTEEFKGRVTMTRDTSISTAYMELSRLRSDDTAVYYCARDDGYGNRVSYWGQGTLVTVSSASTKGPSVFPLAPSSKSTSGGTAALGCLVKDYFPEPVTVSWNSGALTSGVHTFPAVLQSSGLYSLSSVVTVPSSSLGTQTYICNVNHKPSNTKVDKRVEPKSCDKTHTCPPCPAPEAAGGPSVFLFPPKPKDTLMISRTPEVTCVVVDVSHEDPEVKFNWYVDGVEVHNAKTKPREEQYNSTYRVVSVLTVLHQDWLNGKEYKCKVSNKALPAPIEKTISKAKGQPREPQVYTLPPSREEMTKNQVSLSCAVKGFYPSDIAVEWESNGQPENNYKTTPPVLDSDGSFFLVSKLTVDKSRWQQGNVFSCSVMHEALHNRYTQKSLSLSPGK
light: DIQMTQSPSSLSASVGDRVTITCKASQDISNYLSWFQQKPGKAPKTLIYRANRLQSGVPSRFSGSGSGTDFTLTISSLQPEDFATYYCLQHDEFPWTFGQGTKLEIKRTVAAPSVFIFPPSDEQLKSGTASVVCLLNNFYPREAKVQWKVDNALQSGNSQESVTEQDSKDSTYSLSSTLTLSKADYEKHKVYACEVTHQGLSSPVTKSFNRGEC
[3]
  EC50 (read off the curve): ~50 pM
[4]
  EC50 (read off the curve): ~700 pM
[5]
  EC50 (read off the curve): ~200 pM
[6]
  EC50 (read off the curve): ~1000 pM

B3: DART-E (bispecific antibody, human IgG1, kappa, L234A L235A)
heavy: QVQLQQPGAELVRPGASVKLSCKASGYTFTSYWINWVKQRPGQGLEWIGNIYPSDSYTNYNQKFKDKATLTVDKSSSTAYMQLSSPTSEDSAVYYCTRDYGSSYSFDYWGQGTTLTVSSASTKGPSVFPLAPSSKSTSGGTAALGCLVKDYFPEPVTVSWNSGALTSGVHTFPAVLQSSGLYSLSSVVTVPSSSLGTQTYICNVNHKPSNTKVDKRVEPKSCDKTHTCPPCPAPEAAGGPSVFLFPPKPKDTLMISRTPEVTCVVVDVSHEDPEVKFNWYVDGVEVHNAKTKPREEQYNSTYRVVSVLTVLHQDWLNGKEYKCKVSNKALPAPIEKTISKAKGQPREPQVYTLPPSREEMTKNQVSLSCAVKGFYPSDIAVEWESNGQPENNYKTTPPVLDSDGSFFLVSKLTVDKSRWQQGNVFSCSVMHEALHNRYTQKSLSLSPGK
light: DIQMTQTTSSLSASLGDRVTISCRPSQDISNYLNWYQQKPDGTVKLLIYYTSRLRSGVPSRFSGSGSGTDYSLTISNLEQEDIATYFCQQGDTLPYTFGGGTKLEIKRTVAAPSVFIFPPSDEQLKSGTASVVCLLNNFYPREAKVQWKVDNALQSGNSQESVTEQDSKDSTYSLSSTLTLSKADYEKHKVYACEVTHQGLSSPVTKSFNRGEC
chain 1: QVQLQQPGAELVRPGASVKLSCKASGYTFTSYWINWVKQRPGQGLEWIGNIYPSDSYTNYNQKFKDKATLTVDKSSSTAYMQLSSPTSEDSAVYYCTRDYGSSYSFDYWGQGTTLTVSSASTKGPSVFPLAPSSKSTSGGTAALGCLVKDYFPEPVTVSWNSGALTSGVHTFPAVLQSSGLYSLSSVVTVPSSSLGTQTYICNVNHKPSNTKVDKRVEPKSCDKTHTCPPCPAPEAAGGPSVFLFPPKPKDTLMISRTPEVTCVVVDVSHEDPEVKFNWYVDGVEVHNAKTKPREEQYNSTYRVVSVLTVLHQDWLNGKEYKCKVSNKALPAPIEKTISKAKGQPREPQVYTLPPSREEMTKNQVSLWCLVKGFYPSDIAVEWESNGQPENNYKTTPPVLDSDGSFFLYSKLTVDKSRWQQGNVFSCSVMHEALHNHYTQKSLSLSPGGGGSGGGSGGGDIQMTQSPSSLSASVGDRVTITCKASQDISNYLSWFQQKPGKAPKTLIYRANRLQSGVPSRFSGSGSGTDFTLTISSLQPEDFATYYCLQHDEFPWTFGQGTKLEIKGGGSGGGGQVQLVQSGAEVKKPGASVKVSCKASGYTFTNYGMNWVRQAPGQGLEWMGWINTNIGEPTYTEEFKGRVTMTRDTSISTAYMELSRLRSDDTAVYYCARDDGYGNRVSYWGQGTLVTVSSGGCGGGEVAALEKEVAALEKEVAALEKEVAALEK
chain 2: DIQMTQSPSSLSASVGDRVTITCKASQDISNYLSWFQQKPGKAPKTLIYRANRLQSGVPSRFSGSGSGTDFTLTISSLQPEDFATYYCLQHDEFPWTFGQGTKLEIKGGGSGGGGQVQLVQSGAEVKKPGASVKVSCKASGYTFTNYGMNWVRQAPGQGLEWMGWINTNIGEPTYTEEFKGRVTMTRDTSISTAYMELSRLRSDDTAVYYCARDDGYGNRVSYWGQGTLVTVSSGGCGGGKVAALKEKVAALKEKVAALKEKVAALKE
[1]
  binding result: binds
[2]
  EC50 (read off the curve): ~100 pM

B4: HER2 MAB-1 (antibody, V domains shown)
VH: EVQLQESGPELKKPGETVKISCKASGYTFTNYGMNWVKQAPGKGLKWMGWINTNIGEPTYTEEFKGRFAFSLGTSASTAFLQINNLKNEDTATYFCARDDGYGNRVSYWGQGTLVTVSA
VL: DILMTQSPLSMYTSLGERVTITCKASQDINSYLSWFQQKPGKSPKTLIYRANRLVDGVPSRFSGSGSGQDYSLTISSLEYEDMGIYYCLQHDEFPWTFGGGTKLEIK
notes: also called 8H11
[7]
  Kd: 1270 pM
  koff: 0.000654 s⁻¹
  kon: 510000 M⁻¹ s⁻¹

B5: hHER2 MAB-1 (1.2) (antibody, V domains shown)
VH: QVQLVQSGAEVKKPGASVKVSCKASGYTFTNYGMNWVRQAPGQGLEWMGWINTNIGEPTYTEEFKGRVTMTRDTSISTAYMELSRLRSDDTAVYYCARDDGYGNRVSYWGQGTLVTVSS
VL: DIQMTQSPSSLSASVGDRVTITCKASQDINTYLSWFQQKPGKAPKTLIYRANRLVEGVPSRFSGSGSGTDFTLTISSLQPEDFATYYCLQHDEFPWTFGQGTKLEIK
[7]
  Kd: 450 pM
  koff: 0.00028 s⁻¹
  kon: 620000 M⁻¹ s⁻¹

B6: hHER2 MAB-1 (1.3) (antibody, V domains shown)
VH: QVQLVQSGAEVKKPGASVKVSCKASGYTFTNYGMNWVRQAPGQGLEWMGWINTNIGEPTYTEEFKGRVTMTRDTSISTAYMELSRLRSDDTAVYYCARDDGYGNRVSYWGQGTLVTVSS
VL: DIQMTQSPSSLSASVGDRVTITCKASQDISNYLSWFQQKPGKAPKTLIYRANRLQSGVPSRFSGSGSGTDFTLTISSLQPEDFATYYCLQHDEFPWTFGQGTKLEIK
[7]
  Kd: 360 pM
  koff: 0.000223 s⁻¹
  kon: 618000 M⁻¹ s⁻¹
